According to US20250269048A1 (BIVICTRIX, published 2025):
Numbering of substitutions follows the chain as printed. Read-outs that look alike come from different tables or passages of the source. Each block holds one binder with its values, some of them ahead of it.

What was measured:
human CD7 [1] = biological target: T1, human CD7 (human, UniProt P09564 26-180, limits assumed); test: SPR
T1 construct: The construct is not described
T1 sequence (looked up): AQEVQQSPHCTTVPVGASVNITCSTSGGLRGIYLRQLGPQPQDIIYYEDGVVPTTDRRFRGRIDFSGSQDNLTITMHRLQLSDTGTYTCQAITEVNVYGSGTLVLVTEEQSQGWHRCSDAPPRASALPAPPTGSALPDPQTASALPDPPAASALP

human CD7 on cells [2] = biological target: T2, human CD7 on cells (human, UniProt P09564 26-240); test: cell capt. exp.; parameters: unit not given here
T2 sequence (looked up): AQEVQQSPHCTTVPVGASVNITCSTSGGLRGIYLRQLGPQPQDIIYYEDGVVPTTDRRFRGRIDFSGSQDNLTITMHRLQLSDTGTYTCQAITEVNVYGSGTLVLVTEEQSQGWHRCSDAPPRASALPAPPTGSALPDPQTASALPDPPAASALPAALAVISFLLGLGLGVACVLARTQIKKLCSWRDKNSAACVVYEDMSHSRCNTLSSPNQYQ

human CD7 on cells [3] = biological target: T2, human CD7 on cells; test: FACS; cells not named
human CD7 [4] = biological target: T1, human CD7; test: SPR; reference 7-AA-WT
human CD7 [5] = biological target: T1, human CD7; test: SPR; reference 7-PP-1 WT
human CD7 on cells [6] = biological target: T2, human CD7 on cells; test: FACS; reference 7-PP-1 WT
human CD7 [7] = biological target: T1, human CD7; test: SPR (Kd); value of the CD7 arm 7-PP-1 WT
human CD33 [8] = biological target: T3, human CD33 (human, UniProt P20138 18-259, limits assumed); test: SPR (Kd); value of the CD33 arm 33-PP-1 WT
T3 construct: The construct is not described
T3 sequence (P20138 18-259 limits assumed): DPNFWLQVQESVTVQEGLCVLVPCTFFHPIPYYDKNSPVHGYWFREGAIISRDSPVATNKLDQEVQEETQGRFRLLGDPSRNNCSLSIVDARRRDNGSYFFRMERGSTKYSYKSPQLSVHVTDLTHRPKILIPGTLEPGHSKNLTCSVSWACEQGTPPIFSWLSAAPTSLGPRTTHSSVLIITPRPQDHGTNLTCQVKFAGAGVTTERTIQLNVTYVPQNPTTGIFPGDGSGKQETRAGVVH

human CD7 [9] = biological target: T1, human CD7; test: SPR (Kd); value of the CD7 arm 7-PP-13
human CD33 [10] = biological target: T3, human CD33; test: SPR (Kd); value of the CD33 arm 33-PP-4
human CD33 [11] = biological target: T3, human CD33; test: SPR
human CD33 on cells = biological target: T4, human CD33 on cells (human, UniProt P20138 18-364); test: FACS; cells not named
T4 construct: whole, on cells; also called CD33+ cells; MV4.11 (CD7-/CD33+)
T4 sequence (P20138 18-364): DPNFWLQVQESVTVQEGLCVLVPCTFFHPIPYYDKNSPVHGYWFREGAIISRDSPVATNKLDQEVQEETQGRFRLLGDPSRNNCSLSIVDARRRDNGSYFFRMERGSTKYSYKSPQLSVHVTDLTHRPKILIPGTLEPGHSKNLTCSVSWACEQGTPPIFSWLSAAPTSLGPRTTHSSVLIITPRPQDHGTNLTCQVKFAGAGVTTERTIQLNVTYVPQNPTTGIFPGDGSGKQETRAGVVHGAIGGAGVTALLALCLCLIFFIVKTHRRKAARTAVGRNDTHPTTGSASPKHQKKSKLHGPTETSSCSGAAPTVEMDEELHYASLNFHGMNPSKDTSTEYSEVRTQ

human CD7 [12] = biological target: T1, human CD7; test: SPR (Kd); value of the CD7 arm 7-PP-8
human CD33 [13] = biological target: T3, human CD33; test: SPR (Kd); value of the CD33 arm 33-PP-7
human CD33 [14] = biological target: T3, human CD33; test: SPR; reference 33-PP-1 WT
human CD7 [15] = biological target: T1, human CD7; test: SPR (Kd); value of the CD7 arm 7-PP-3
human CD7 [16] = biological target: T1, human CD7; test: SPR (Kd); value of the CD7 arm 7-PP-2

Kd (human CD7 [1]): 44.5 nM | Kd (human CD7 [1]; record 2): 72.2 nM | Affinity from cell capt. exp. (human CD7 on cells [2]): 46 | FACS binding (human CD7 on cells [3]): 28.4 | Fold Reduction in binding affinity compared to WT (Kd) (human CD7 [4]): 17 fold | Fold Reduction in binding affinity compared to WT (Kd) (human CD7 [4]; record 2): 27.5 fold | Fold Reduction in binding affinity compared to PP WT (Kd) (human CD7 [5]): 20.3 fold | FACS fold reduction compared to PP WT (human CD7 on cells [6]): 53.2 fold
B1: CD7-PP-13 CD7 binding arm (Fab, V domains shown)
VH: QVQLQESGAELVKPGASVKLSCKASGYTFTSYWMHWVKQRPGQGLEWIGKINPSNGRTNYNEKFKSKATLTVDKSSSTAYMQLSSLTSEDSAVYYCARGGVYYDLYYAALDYWGQGTTVTVSS
VL: DIELTQSPATLSVTPGDSVSLSCRASQSISNNLHWYQQKSHESPRLLIKSASQSISGIPSRFSGSGSGTDFTLSINSVETEDFGMYFCQQSNSWPYTFGGGTKLEIKR
notes: Heavy chain CDR3 Tyr108Ala; also called 7-PP-13 (mut_17-AA-1)

Fold reduction in binding affinity vs 7-PP-1 WT (human CD7 [12]): 87 fold | Fold reduction in binding affinity vs 33-PP-1 WT (human CD33 [13]): 68 fold
B6: BVX152 (bispecific antibody)
heavy: QVQLQESGAELVKPGASVKLSCKASGYTFTSYWMHWVKQRPGQGLEWIGKINPSNGKTNYNEKFKSKATLTVDKSSSTAYMQLSSLTSEDSAVYYCARGGVYYDLYYAALDYWGQGTTVTVSSASTKGPSVFPLAPSSKSTSGGTAALGCLVKDYFPEPVTVSWNSGALTSGVHTFPAVLQSSGLYSLSSVVTVPSSSLGTQTYCCNVNHKPSNTKVDKKVEPKSCDKT
light: DIELTQSPATLSVTPGDSVSLSCRASQSISNNLHWYQQKSHESPRLLIKSASQSISGIPSRFSGSGSGTDFTLSINSVETEDFGMYFCQQSNSWPYTFGGGTKLEIKRTVAAPSVFIFPPSDEQLKSGTASVVCLLNNFYPREAKVQWKVDNALQSGNSQESVTEQDSKDSTYSLSSTLTLSKADYEKHKVYACEVTHQGLSSPVTKSFNRGEC
VH: EVQLVQSGAEVKKPGSSVKVSCKASGYTITDSNIHWVRQAPGQSLEWIGYIYPYNGGTDYNQKFKNRATLTVDNPTNTAYMELSSLRSEDTAFYYCVNGNPYLAAWGQGTLVTVSS
VL: DIQLTQSPSTLSASVGDRVTIICRASESLDNYGIRFLTWFQQKPGKAPKLLMYAASNQGSGVPSRFSGSGSGTEFTLTISSLQPDDFATYYCQQTKEVPWSFGQGTKLEIK
notes: bi-Fab; also called CD33-PP-7/CD7-PP-8

Fold reduction in binding affinity vs 33-PP-1 WT (human CD33 [13]): 68 fold | Fold reduction in binding affinity vs 7-PP-1 WT (human CD7 [7]): 0 fold
B7: BVX102 (bispecific antibody)
heavy: B6 heavy with K57R, A108Y
light: B6 light
VH: B6 VH
VL: B6 VL
notes: bi-Fab; also called CD33-PP-7/CD7-PP-1 WT

Kd (human CD33 [11]): 52.7 nM | FACS binding (human CD33 on cells): 321 nM | Fold Reduction in binding affinity compared to 33-PP-1 WT (Kd, nM) (human CD33 [14]): 38.8 fold
B9: CD33-PP-4 binding arm (Fab, V domains shown)
VH: B6 VH with A105Y
VL: B6 VL

Fold reduction in binding affinity vs 7-PP-1 WT (human CD7 [15]): 9.1 fold | Fold reduction in binding affinity vs 33-PP-1 WT (human CD33 [8]): 0 fold
B10: BVX120 (bispecific antibody)
heavy: B6 heavy with A108Y
light: B6 light
VH: B6 VH with Y102W, A105Y
VL: B6 VL
notes: bi-Fab; also called CD33-PP-1 WT/CD7-PP-3

Kd (human CD33 [11]): 92.3 nM | FACS binding (human CD33 on cells): 464 nM | Fold Reduction in binding affinity compared to 33-PP-1 WT (Kd, nM) (human CD33 [14]): 67.9 fold
B11: CD33-PP-7 binding arm (Fab, V domains shown)
VH: B6 VH
VL: B6 VL

Fold reduction in binding affinity vs 33-PP-1 WT (human CD33 [10]): 38.8 fold | Fold reduction in binding affinity vs 7-PP-1 WT (human CD7 [7]): 0 fold
B13: BVX101 (bispecific antibody)
heavy: B6 heavy with K57R, A108Y
light: B6 light
VH: B6 VH with A105Y
VL: B6 VL
notes: bi-Fab; also called CD33-PP-4/CD7-PP-1 WT

Fold reduction in binding affinity vs 7-PP-1 WT (human CD7 [16]): 21.3 fold | Fold reduction in binding affinity vs 33-PP-1 WT (human CD33 [8]): 0 fold
B14: BVX110 (bispecific antibody)
heavy: B6 heavy with K57G, A108Y
light: B6 light
VH: B6 VH with Y102W, A105Y
VL: B6 VL
notes: bi-Fab; also called CD33-PP-1 WT/CD7-PP-2

Continued, binder first:

B2: BVX100 (bispecific antibody)
heavy: B6 heavy with K57R, A108Y
light: B6 light
VH: B6 VH with Y102W, A105Y
VL: B6 VL
notes: also called CD33-PP-1 WT/CD7-PP-1 WT
Fold reduction in binding affinity vs 7-PP-1 WT (human CD7 [7]): 0 fold | Fold reduction in binding affinity vs 33-PP-1 WT (human CD33 [8]): 0 fold

B3: BVX161 (bispecific antibody)
heavy: B6 heavy with K57R
light: B6 light
VH: B6 VH with A105Y
VL: B6 VL
notes: bi-Fab; also called CD33-PP-4/CD7-PP-13
Fold reduction in binding affinity vs 7-PP-1 WT (human CD7 [9]): 20.3 fold | Fold reduction in binding affinity vs 33-PP-1 WT (human CD33 [10]): 39 fold

B4: CD33-PP-1-WT binding arm (Fab, V domains shown)
VH: B6 VH with Y102W, A105Y
VL: B6 VL
Kd (human CD33 [11]): 1.36 nM | FACS binding (human CD33 on cells): 0.16 nM

B5: BVX150 (bispecific antibody)
heavy: B6 heavy
light: B6 light
VH: B6 VH with Y102W, A105Y
VL: B6 VL
notes: bi-Fab; also called CD33-PP-1 WT/CD7-PP-8
Fold reduction in binding affinity vs 7-PP-1 WT (human CD7 [12]): 64.3 fold | Fold reduction in binding affinity vs 33-PP-1 WT (human CD33 [8]): 0 fold

B8: BVX162 (bispecific antibody)
heavy: B6 heavy with K57R
light: B6 light
VH: B6 VH
VL: B6 VL
notes: bi-Fab; also called CD33-PP-7/CD7-PP-13
Fold reduction in binding affinity vs 7-PP-1 WT (human CD7 [9]): 20.3 fold | Fold reduction in binding affinity vs 33-PP-1 WT (human CD33 [13]): 68 fold

B12: BVX160 (bispecific antibody)
heavy: B6 heavy with K57R
light: B6 light
VH: B6 VH with Y102W, A105Y
VL: B6 VL
notes: bi-Fab; also called CD33-PP-1 WT/CD7-PP-13
Fold reduction in binding affinity vs 7-PP-1 WT (human CD7 [9]): 20.3 fold | Fold reduction in binding affinity vs 33-PP-1 WT (human CD33 [8]): 0 fold
